This note sets out measurements from the DeepSol protein solubility set.

This series in a line: soluble on expression in E. coli; label from the status in PepcDB or PDB records.
Turning to “MSLKALNKETAPKVQRPERIIQFGEGNFLRAFVDWIIYNMNQKTDFNSSVVVVQPIDKGMVDMLNAQDDLYHVNLQGLDKGEVVNSLTMIDVISRALNPYTQNDEFMKLAEQPEMRFVISNTTEAGIAFDPTCKLEDAPASSYPGKLTQLLYHRFKTFNGDKTKGLIIFPCELIFLNGHKLKETIYQYIDLWNLGNEFKTWFEEACGVYATLVDRIVPGFPRKDIAAIKEKIQYDDNLVVQAEIFHLWVIEAPQEVAKEFPADKAGLNVLFVPSEAPYHERKVTLLNGPHTVLSPVAYLSGVNIVRDACQHEVIGKYIHKVMFDELMETLNLPKEELKKFAEDVLERFNNPFVDHAVTSIMLNSFPKYETRDLPGLKTYLERKGELPKGLVLGLAAIITYYKGGVRADGAEIVPNDAPEIMNLLKELWATGCTKKVTEGVLAAEFIWGEDLNKIPGLAAAVKADLDSIQEKGMLETVKGILEGHHHHHH”, the “soluble on expression in E. coli” value is reported as “soluble”.
The entry for “MSLKAPVDFEQEVAPLLSQRCVSCHSPNIKKGELSLAGPEDLLANGYVVPGDPAGSYLLEVVSPAGDDPAAMPKLGDALAEPEVALLRRWIEQGAVWPDGFVIREASKADRSWWSLQPLADIHPPEVAAAPAAWRQNPIDRFVWAKLSEANLKPNSPADRRTLIRRATFDLTGLPPTAEEIDTFVASDSPDAYPQLIDRMLASPRYGERWGRHWLDVIRFGESRGFERNQIITNLWPFRDYVIRSINEDKPFDQFIREHLAGDVIAPNTPQVEVGSAFLVAGPYDDVGNEGHHHHHH” is “soluble”.
The entry for “MSLKARTKIEKQVAASNEKLTAISPKVMTWAVRKVAGHVCFRTSAHKCTCGECGRQFDYEGKGKSVCCPYCGTRLQIKDTLKRTIKEAYYFSSLEVIDHLQVQRVFRLETTFRKGLPMEVDYWEACRLWLNAEGKSAVTARARTLSYYVDCFDWASEITLKRPNEVHWLIADTYVYPHYRLLPELKRNGMKGKLPDCYPMKLMKAVLTDSRMETILKSKDLHAVSYFVNRPLELDRCWQSYKVATRHHYRPSDMGLWADTIRLLEQCGKDICSPRYICPQNLKAEHDYWMNRHNQMEQKRRSQEQIQRAKRKEAEFYKEKSRYFGITITDKDLVISVLDTLEAFQAEGNALHHCVFQCEYYAKADSLILSAHDKEGNRIETIEFSLTEGKVIQSRGLCNTNTPHHDRIVRLVNAHAHQILAAKQTAEGHHHHHH” is “not soluble”.
As for “MSLKDPLSEALVRLNQKVDSELIPEIKRFPLIGISTDISPKRTAVNTAYVQSVILSGGIPYMIPVTDNVEILRQIVSRLDGIVFTGGEDIQPMYYGDLPYEKLEEVSPARDTFDLMVLKMAADRNIPILGICRGLQLMNVAFGGTLYQDLPTQHPSSVNHRQKESGTTTTHPISIIKGSKLADITGQEVLQVNTFHHQAIQKLAPGFKITAWAPDSIAEAIEAYPIRQMIGVQFHPEIFTAAGDTTMHKLFKFLVNKADEGHHHHHH”, the “soluble on expression in E. coli” value was “not soluble”.
The entry for “MSLKEELLEAIYGTVERLEQKVDELSASPKNTEAESTPVSVSVDTSKLEKAILAMAVKEGEAIDKLVRLREAICIFTDLTKKEASKDEQRSKLLFDTINQVKQELNATSKNVQDKLHAMDNAPLKKVVTHRFEPTSKYVLLFIGGLALSLVISIWGNLAQWREYQAWEVADLKYRALKMVLPSDDPNVRYIEKHFSVCRDEKVIDDVRNCVAAYEDSIRHHHEMVEMATYKDSIANKLLQESNRIIRAMKSSKEGHHHHHH” is “not soluble”.
Next, “MSLKEESLLEYYAQDSFYAEYSSGTGYEIQERALRSTFSRYMKELHKRNVTGGKLLEIGCGFGFLLDEAKNYFDYRIGTDFSSEAVSHAKKYADNVYCGGLEAIPSDTSTKFDCVITFSVLEHVYNPNTFIQEIQNYMAPNGSLVVSTPFIGGMWYKILGKKWSFFIPPEHVCLYNHNSISQLLKQNGFKNIEMFISSHAWPVAGFLSKMGMRKLSSMTLKLKIGDVPLFVPFTIINIIGSKEGHHHHHH”: “not soluble”; “MSLKENKYDDKHFFEQYSQMPRSKEGLKAAGEWHELKKMLPDFNQKTVLDLGCGFGWHCIYAAEHGAKKVLGIDLSERMLTEAKRKTTSPVVCYEQKAIEDIAIEPDAYNVVLSSLALHYIASFDDICKKVYINLKSSGSFIFSVEHPVFTADGRQDWYTDETGNKLHWPVDRYFNESMRTSHFLGEDVQKYHRTVTTYIQTLLKNGFQINSVIEPEPAPELKDLPEMQDEYRRPMMLLISATKQEGHHHHHH”: “soluble”.
Next, “MSLKENNMDKAHIGFIGLGLMGAAMVECLQKAGHAVTVLGNRDRTGVEAALARGATEAAHARAVAEASDIVMLCMGTSAQVESRIYGDDGVLAGTREGQVVIDFGTSLPASTRRIGGDLAGKGATYLDAPLGRTPAHARDGLLNIMCSGDKATFDRVKPVLHTLGENVFHLGALGNGHTIKLINNCYSMTTACAMAEAFAIADATGIERQALYNVMAAGPNHSGMMDFINAYANGGRIDLAFTVANAAKDVGYYRQMATEMGLFSRMSIAADATLREARDGGDGGLMVPQMIDWMVRHLGEEGHHHHHH”: “soluble”; “MSLKFIEEVVVEEFLPTFRSLLAADLRERGLTQHEVAELLGVSQSAVSKYAHGDVTTDDEIAADDRVQELVERTGSGLATGNVSQVQALVEAEVLVRELSTSSDILAERHEAANPALADYDGDFTVHDADSEVRVREHVLSSVRRGVRMLERTSGFATQIPAVGANLVECTPEADTVEDVAGVPGRVLDVMGRTEIPAEPEFGVSAYVATVLLDARAAGVDAHAALNIAYSADTVAALADAGYAVVEFEPEGESTTDDHHIRDAVRDADAVDVLYQTGGYGVEPIVYVLAENAPDAVRMARGLEGHHHHHH”: “soluble”.
“MSLKGSEVITKFSKVDTIMFDKTGTLTYGDPRVSQVKKYGQGQLAEQLLVSVEKESAHPLAKAITGYYEDLEAEEVEASRVLQGGGIVAQVAGQQVLVGNRYLLDQYHVLVTKEMERDMEELASAGNSLVLVAVNGQLELALGLKDEIRAGVKEDLAALKKQGVKNLLLLSGDNQKTVDLVAEELGPTEAYGQLLPEDKAEFVKKRQAAGEIVAFVGDGINDSPSLARADIGIAMGSGTDVAIETSNVVLMNGSFDRIPRALALAKATRRNMIENEGHHHHHH”: the “soluble on expression in E. coli” value is on record as “soluble”.
Next, “MSLKGTYVLLLKLEESVALRYGKKASHLEPGYYAYVGSAMGGFFKRIPRYFLGSRKRHWHIDYLLDHAQIAGLIMFSGKRIEEEISNVLSYHFEGIEDFGASDLRVKTNLYHVDPDKLFSLLGGFRENRDIRRAQKHRGKQNQSGEGHHHHHH”: “soluble”.
As to “MSLKHLWFEKGAYASKAARQYLNDHFNPLAVKKTAVIRHAALGDQVIVRPFLVEARKFFPNAEITLVTVSNYLYGTPSDLADKTVIMKSRDDSKQLSLRQKWQDYNQLEAQDIIFDVAGTNRSYWMTLLTKAKLKVGFPYKPFLCGTLYNLAVFRSDFQPEVECMLDMLKILGHNPSYPLDFAYPDNRQICDHAAPYIVYFSGASQLRKILTKPEMRAVIEQTIQQQPNVKHVFLEGKNEFEKGEYLQDLADNGSLTIQPCLPLDDLVTFIAKATLVIAPDTGIRNVAISTHTPTVGIFYATVPFRYTPLYEAHTIVMNANGEKPSTEQITSAIDTTLKMRLAAAKNTQEQEGHHHHHH”, the “soluble on expression in E. coli” value is given as “soluble”.
In the case of “MSLKHQFSRNELAYGQEGLDLLKEKTVAVLGVGGVGSFAAEALARTNIGHIILIDKDDVDITNVNRQIHALTTTIGQSKVTLMEERIKLINPDCKVTPLHMFYTEETYEDLFNNYDIDYFIDASDTIIYKVHLMKECLERGIKMISSMGAANKTDPTRFKIADISKTYMDPMAKIIRNKLKRQGIKKGVPVVFSDESPIVIREDVKATVGDANAINRKGQMPPSSNAFVPSTVGLICASYVVNDILKNIPVRRIKDKGNEGHHHHHH”, the “soluble on expression in E. coli” value is recorded as “soluble”.
Next, “MSLKIAIVGCGAMGSVYAGLLASAGNSLWIVDRWKAHVEAINSRGLRLEGPQRDLTAFAHASTTAPDEPMDLVIIAVKASDVETGAQQTLSMIGPETIVLTIQNGLGSADAVAQVVGVDRLAVGIASGFGASLKGPGHAHHNAMQALRFGAYSSLPYERVVAVARVWESAGFDAKAIRDIAVMQWEKLICNVAYSAPCALTGMTVGEVMNDPCMGPVSQAAATEAWSVARALGIQIDVDDPVAHVRAFGARMPAAKPSALLDHEAGRISEIDVINGAVPTQGNKLGIATPVNSTLTQLVRVKERQFREGHHHHHH”: “soluble”; “MSLKIAQATARVEAFALVRPYTIALRHVGTVENVIVQLQTASGLIGLGAASAAADVTGESDQACREALLGGAIGWLVGEDIRELPKLCRRLGERMAGRPAARAAVDIALHDLLAQHLGVPLVAMLGRVHTGLPTSITIGIKPLDETLAEAREYLGRGFRILKVKTGLDLEGDIERLARLREQVGDAVHLRVDPNQGYSIAEVEQFVRRTAHLFLEFLEQPIPAGDIAALRALPPDIRLRIAADESLLDERDALKLLTPSPACGIFNIKLMKCGGIRPALAIAGLAEIAGIELMWGCMDESIVSITAALHAALACPATRYLDLDGSLDLARDVVTGGFVLKDGYLSTREAPGLGVQLLSEGHHHHHH”: “not soluble”.
The entry for “MSLKILDCTLRDGGYYTNWDFNSKIVDAYILAMNELPIDYLEVGYRNKPSKEYMGKFGYTPVSVLKHLRNISTKKIAIMLNEKNTTPEDLNHLLLPIIGLVDMIRIAIDPQNIDRAIVLAKAIKTMGFEVGFNVMYMSKWAEMNGFLSKLKAIDKIADLFCMVDSFGGITPKEVKNLLKEVRKYTHVPVGFHGHDNLQLGLINSITAIDDGIDFIDATITGMGRGAGNLKMELLLTYLNKHHGLNVDFNVLGNIITTFTPLLEKYQWGTNLPYMLSGANNIPQKEVMDWVTNRVYSFNSIIRALDNRKNKMEDNAKYPLLNIKNKFDRVVIIGGGFNAIEHKEAIKSFIETHTNTAIIFATARYAREYLDVNAPHFYCLVGNEGHRLTHNINPQNLSGICVLPPYPRPMGTEVPEYAKNVTFELENITFIDQYKDSVTTIALQLAILLTDQDIYLVGYDGYPGNVLSEKEMALTNENRTIFATYTTISGKILKSLTPSIYKEIEVVSVYQFEGHHHHHH” is “soluble”.
The entry for “MSLKILYISQEIFPYLPETDISVVSRKLPQTIQERGNEVRIFMPRYGIINERRNQLHEVIRLSGINMIINDNDHPLIIKVASIQSARMQVYFIDNDDFFKRKTMYDIKPKQENDNDERAIFFVRGALEAIKKLRWIPDVIHCHGWFTALAALYLKKMYADDPCLQKAKVVYSVYDDAGQGVIPETLFGKLGFDKITPDDLSVMEQSSDYLALNRLAIRYADGVIQGSETIAPELTDYISSLEGKAFLPYQGKEDYEEAFDNFYSDLLTANEGHHHHHH” is “soluble”; for “MSLKISDVVVELFREAAIYLPEDVKNALEEAYKKESSEISKNTLKAIIENNKIAEETQVPLCQDTGVPIVFLKIGKNINSSEIMKIIEEIKEGVKKATEEVPLRPNVVHPLTRENFKTNVGLNSPFINIEFDESLDREIEIIAFPKGAGSENMSALKMLKPSDGIEGIKNFVLETIANAGGKPCPPIVVGIGIGGTADVALKLAKKALLRKIGERHRDKEIANLEKELLEKINSLGIGAMGLGGDITALDVFIEIAGCHTASLPVGICIQCWADRRAIKRIKLDAKEGGSHHHHHH” it is “soluble”; for “MSLKITAVKCILLSCPYAIPGDLEREFCFADGHRTISVIKVETDEGIHGLGETYIGVFAPEATQAIVRQLEVDLVGRDPMDTAGIANILKLATYYWGRFGMSASIAGGIEMALWDLKGKALGVPVHQLLGGKVHDHIPAYASGGNNKPFPELKKELLGYKKLGFGAVKIRINYLEPHEIIEKVAYSREVLGDKTGLGVDACQGVNPKAWNYKEAIGIVRSLEPYKLLFVEEPCEVTDYKGFAKIRAETDCVIAGGETVSSLVEAENYLEAGALDLFQPDAAIIGGISAFRRVAQMCERKFIKLAVHTWAGGVGIMGNYHAAFASPNCTLLELPNNPFPLREEFLVQPLTLVNGGIAAPTAPGLGVEGHHHHHH” it is “soluble”.
